Test results as given in the DeepSol protein solubility set.

Assay: soluble on expression in E. coli; label from the status in PepcDB or PDB records

Sequence	soluble on expression in E. coli
MPHFTKRPAQPQAALAEAAGLRWLAEASSAVAQVVSADAEQITTVGVETQLPTPDAAFKAGEELARIHLAGAPAFGCPPAGWAGLNYIGTQGQACLSTPTWGVFYSQQRVLPFARRARRRNHLTEHALWVVEAACDLISELPDDVPPARIHGDLWFGNLLFGTDGPVFIDPAAHGGHPETDLAMLDVFGAPYLDEIREGYLSINPLPDGWRERTPMHQLHPLAVHAASHGPSYGVELLHAAKATLKLLDLEHHHHHH	not soluble
MPIGHSREVLVRLRDILALLADGCKTTSLIQQRLGLSHGRAKALIYVLEKEGRVTRVAFGNVALVCLSMDQYRQLVDGMIREVERLVTTNKLKFISPPRLHDLIIKDPQARKFFSSIIPIAHRTAIILSFLNHLLKMIYGEPYVKTDETVYLTANRKVHIEPPAK	soluble
MPILQELRLGKRISRDISLADLYQEWIELKILPSSRSEETKKKYLLRKNTIERLFGNKKVTQIRASEYQRIMNKYGQTVGRNFLGRLNTGIHQSIQMAIADKVLIDDFTQHVELFSSKEQQMTLEHHHHHH	not soluble
MPIRFLHTADLHLDSPLRTFGDLARERRRDFLKTFDRIVNLAIKREVDCILIAGDLFDSTSVGAETVGRVQDAFSRLAGRGVQVVLIPGTHDNIISAESVYSRYQFTGVHILREPAVDEPLRLDIRGEAVFFYGFAYRSDRSREALESMRRRSGDGIHVGLLHGSLKGNPEWEMRKKDIPFSVADLVALDLDYIALGHYHDAACLEEGGRVIACYPGSPEGKKFGENGPRYALIVEVAPGNASVERVEVQTRIIREFNVDASLFAEPAALEAELARLGTSDTVGRIRLCGTVEEPLDTANLSGRVKGNFAWLELVDETDLYNSGHVKRMEREDSIRGLFIRKIHERYDAAGSDAERELCRDALRLVMGRFSRGGGN	not soluble
MPITIGRGFLKSEMFSQSAISQRSFFTLLWEKIKDFFCDTQRSTADQYIKELCDVASPPDAQRLFDLFCKLYELSSPSCRGNFHFQHYKDAECQYTNLCIKDGEDIPLCIMIRQDHYYYEIMNRTVLCVDTQSAHLKRYSDINIKASTYVCEPLCCLFPERLQLSLSGGITFSVDLKNIEETLIAMAEKGNLCDWKEQERKAAISSRINLGIAQAGVTAIDDAIKNKIAAKVIENTNLKNAAFEPNYAQSSVTQIVYSCLFKNEILMNMLEESSSHGLLCLNELTEYVALQVHNSLFSEDLSSLVETTKNEAHHQSLEHHHHHH	not soluble
MPIVNQSSLVPYSAEQMYQLVNDYEKYPQFLSGCIGAKTISRGNNELEAELQIQKLGISQSFSTHNKMLPNERIEMKLVNGPFRQLQGAWNFQPFDEQSCKISLYLEFEFSNPVVGMVFGKIFNELTLKMVNAFKQRAKEVYGVLEHHHHHH	soluble
MPKDKLVITVSGLAGSGTTTLSKKIAEHYGLKHVYAGLIFRQMAKEKGMSLEEFQKYAELHPEIDREVDRRQIEAAKEGNVVIEGRLAGWMVKNADLKIWLDAPIRVRAERVAKREGISVEEAFMKIAEREMQNRKRYLNLYGIDINDLSIYDLIINTSKWSPEGVFAIVKAAIDHLDPVGDAGSKKEKEVG	soluble
MPKFDVSKSDLERLIGRSFSIEEWEDLVLYAKCELDDVWEENGKVYFKLDSKDTNRPDLWSAEGVARQIKWALGIEKGLPKYEVKKSNVTVYVDEKLKDIRPYGVYAIVEGLRLDEDSLSQMIQLQEKIALTFGRRRREVAIGIFDFDKIKPPIYYKAAEKTEKFAPLGYKEEMTLEEILEKHEKGREYGHLIKDKQFYPLLIDSEGNVLSMPPIINSEFTGRVTTDTKNVFIDVTGWKLEKVMLALNVMVTALAERGGKIRSVRVVYKDFEIETPDLTPKEFEVELDYIRKLSGLELNDGEIKELLEKMMYEVEISRGRAKLKYPAFRDDIMHARDILEDVLIAYGYNNIEPEEPKLAVQGRGDPFKDFEDAIRDLMVGFGLQEVMTFNLTNKEVQFKKMNIPEEEIVEIANPISQRWSALRKWILPSLMEFLSNNTHEEYPQRIFEVGLATLIDESRETKTVSEPKLAVALAGTGYTFTNAKEILDALMRHLGFEYEIEEVEHGSFIPGRAGKIIVNGRDIGIIGEVHPQVLENWNIEVPVVAFEIFLRPLYRH	soluble
MPKPSVGINGFGRIGRLVLRAAVEKDSVNVVAVNDPFISIDYMVYLFQYDSTHGRFKGTVAHEGDYLLVAKEGKSQHKIKVYNSRDPAEIQWGASGADYVVESTGVFTTIEKANAHLKGGAKKVIISAPSADAPMFVVGVNHEKYDHANDHIISNASCTTNCLAPLAKVINDNFGIIEGLMTTVHAVTATQKTVDGPSGKLWRDGRGAGQNIIPASTGAAKAVGKVIPELNGKLTGMAFRVPTPDVSVVDLTARLEKPASLDDIKKVIKAAADGPMKGILAYTEDQVVSTDFVSDTNSSIFDAGASISLNPHFVKLVSWYDNEFGYSNRVVDLISYIATKA	not soluble
MPKSDTKQKKRRSNKNRLRIKRARLFGPKDIDQVKEDIESQKKIEYDPELPGGGHFYCCECDRHFITEKVLMEHKRSNPHRRRAKEVREVAHSQRDAEWAVGLT	not soluble
MPLITTETGKKMHVLEDGRKLITVIPGDGIGPECVEATLKVLEAAKAPLAYEVREAGASVFRRGIASGVPQETIESIRKTRVVLKGPLETPVGYGEKSANVTLRKLFETYANVRPVREFPNVPTPYAGRGIDLVVVRENVEDLYAGIEHMQTPSVAQTLKLISWKGSEKIVRFAFELARAEGRKKVHCATKSNIMKLAEGTLKRAFEQVAQEYPDIEAVHIIVDNAAHQLVKRPEQFEVIVTTNMNGDILSDLTSGLIGGLGFAPSANIGNEVAIFEAVHGSAPKYAGKNVINPTAVLLSAVMMLRYLEEFATADLIENALLYTLEEGRVLTGDVVGYDRGAKTTEYTEAIIQNLGKTPRKTQVRGYKPFRLPQVDGAIAPIVPRSRRVVGVDVFVETNLLPEALGKALEDLAAGTPFRLKMISNRGTQVYPPTGGLTDLVDHYRCRFLYTGEGEAKDPEILDLVSRVASRFRWMHLEKLQEFDGEPGFTKAQGED	soluble
MPLSTSDNIAAVIVTHKRVELLRASLEVVAAQTHPVKWIIVVDNGCEDAVRDLLHSVAGDRGIYLPSHTNLGGAGGFAYGFLTALALGADAIWCADDDGRPEGPQVLATLIDAAVTHQLDEVSPVVCNMDDPNRLAFPLRRGLEWRRYRSELIDPNNPSDTLLPGIASLFNGALISAAAMERIGVPDLRLFIRGDEVEYHRRLVRSGLNFGTCLTTAYLHPDGSDEFKPILGGRMHTQYPASDAKRYFTYRNRGYLMNQPGMRRLLPQEYARFAWFFLIQRRDPRGFLEWFKLHQLGRSEKFERPLEHHHHHH	not soluble
MPLSYSSPSSSEERSDDPSKYDGDFGVPQICFCGKQLELVERLIGDQKKTFLKCPMSGQDDNYHVDKGWDLAVHEQCFCIDKRFGEHRELIQNAFKFGGDSNRLQINQIHAEIEDLKHRLDKKDAEIARLMDALGKK	not soluble
MPLTQTQRLINTYGASLKNGTISNEELIILLDPNTFTKSEGYVDPNAPVSDSNHSKMDAIKDFVLTIGPTLDSEILHQLTSRMIELSPPGDRNTFMRGSSLEKAFLAFEMAHYPTKAEEHFNSTRVRTEFPGENDIDNLKAVILNPIIAFFQSPPGTDEKLEKLIKLCTDYKEHLKPSLTDDANNLVNKKHAIVTNMLAALTDSTAPNNATKIKNMEQILTEENKATLKDRRDSFSGARFLESILHILSLGIYSKLTKGTFKFWKSHGEALSDNIEEVSKQQPGMK	not soluble
MPLVTRNIEPRHLCRQTLPSVRSELECVTNITLANVIRQLGSLSKYAEDIFGELFTQANTFASRVSSLAERVDRLQVKVTQLDPKEEEVSLQGINTRKAFRSSTIQDQKLFDRNSLPVPVLETYNTCDTPPPLNNLTPYRDDGKEALKFYTDPSYFFDLWKEKMLQDTKDIMKEKRKHRKEKKDNPNRGNVNPRKIKTRKEEWEKMKMGQEFVESKEKLGTSGYPPTLVYQNGSIGCVENVDASSYPPPPQSDSASSPSPSFSEDNLPPPPAEFSYPVDNQRGSGLAGPKRSSVVSPSHPPPAPPLGSPPGPKPGFAPPPAPPPPPPPMIGIPPPPPPVGFGSPGTPPPPSPPSFPPHPDFAAPPPPPPPPAADYPTLPPPPLSQPTGGAPPPPPPPPPPGPPPPPFTGADGQPAIPPPLSDTTKPKSSLPAVSDARSDLLSAIRQGFQLRRVEEQREQEKRDVVGNDVATILSRRIAVEYSDSEDDSSEFDEDDWSD	soluble
MPMLSEEEGGAKIVLEGPKELLDRIVEALKEVYDPEIPVNVYDLGLIYEVRVEGPREKPRIKVKMSLTAIGCPVSVALPAYVEDAIREAVPEAEDVEVEVVFDPPWTPERVTPEGRELLKTIYGYDVVEQWKRAAQQQYGG	soluble
MPMNTTGMSFSSFGISCHRENSFRNSFRGKNDEVVKCSIGERTISFSVRKFSGNILETVRRQSTKDIDEWIKDERIVYPSRVINQEIDNYCFQKNAKISTEERQRVFFLVSQENQLTLDVKAAQSSINHVIMGSASFGKKMDALCDGMSRDVKNRTSDTIANLLADKFYQKHIDSDIDIVKLRNDIPDYLMRAIQG	not soluble
MPMRYWLMKSEPDETSIDHLAAEPARLFEWTGVRNYQARNFMRDDMQPGDLLLFWHSSCPEPGIAGIAEVAAAAHADSSQFDPASPYHDPKSDPADPRWLCVDVRFVRKTRLLPPAELRRHPPLEGMTVLKRGNRLSITPVTAEEWAYLMDLLDIRRAGLEHHHHHH	soluble
MPNKISGSIAPSASSDAMKSADCAENIKEEVVSKHVHQAVPAELADLPSRQPPRSKTALYQVIQKFRDPLPLPPPPTSHPVLAYDRDLGSSDNFRSSDEFDLPESLNPTGWKNLHVSGSGSIASIGQITRLRPSKERPVVVLDAREESHAIVGGYPGTWRTPNNWGNAGKSRDEALADEQQRIQALKSQETVHIFHRKDVKSEARNPRGATLSKPLIFSEEELVRAAGAKYVRLTVTDHLSPRADDIDAFIAMEREMAHDERLHVHCGMGLGRTTIFIVMHDILRNAAMLSFDDIIERQRKFNPGRSLDNNKDVSDKGRSEFRNERSEFLPLFYEYAKQNPKGQPLLWSEWLDHNA	not soluble
MPNPRRIVFGDVHGHFDALTALFEAIAPNERDGVYFVGDLIDRGPESAKVVDFVMENKYHCLLGNHEQMMLDAVGGFNFSPQLLHAWIYSGGKSTLESYEHQIPQSHVDWMRNLPLYLDLGDVWLVHAGVDPRLPIEEQGEAQFCWIRDEFHRYPYPYFANKLIITGHTITFTFANVEPGKLVSGPGWLDIDTGAYHPKSGWLTALELNNQEVYQAHIFTNEVRRLPLEDAVVPLEHHHHHH	soluble
MPNQGSSNKVYVIGVGMTKFEKPGRREGWDYPDMARESGTKALRDAGIDYREVEQGYVGYVYGESTSGQRALYELGMTGIPIVNVNNNCSTGSTALYLGAQAIRGGLADCVLALGFEKMQPGALGGGADDRESPLGRHVKALAEIDEFGFPVAPWMFGAAGREHMKKYGTTAEHFAKIGYKNHKHSVNNPYAQFQDEYTLDDILASKMISDPLTKLQCSPTSDGSAAVVLASEDYLANHNLAGRAVEIVGQAMTTDFASTFDGSARNIIGYDMTVQAAQRVYQQSGLGPKDFGVIELHDCFSANELLLYEALGLCGPGEAPELIDDNQTTYGGRWVVNPSGGLISKGHPLGATGLAQCAELTWQLRGTAEARQVDNVTAALQHNIGLGGAAVVTAYQRAER	not soluble
MPPIPSRARVYAEVNPSRPREYWDYEAHMIEWGQIDDYQLVRKLGRGKYSEVFEGFKMSTDEKVVVKILKPVKKKKIKREIKILENLRGGTNIITLLDVVKDPISRTPALIFEHVNNSDFKQLYQTLSDYDIRYYLYELLKALDFCHSQGIMHRDVKPHNVMIDAEKRELRLIDWGLAEFYHPRQDYNVRVASRYFKGPELLVDYQCYDYSLDMWSLGCMLASMIFRKEPFFHGHDNYDQLVRIAKVLGTDELYEYIARYHIDLDPRFNDILGRHSRKRWERFIHAENQHLVTPEALDFLDKLLRYDHAERLTAQEAMGHEYFRPVVEAHARANGTEQADGQGASNSASSQSSDAKIDGA	not soluble
